The values below come from patent US20230091105A1 (NORTHWESTERN UNIVERSITY, published 2023).

For assay [1], the target named is T1, Tie2 receptor on HUVEC (human, UniProt Q02763 23-1124). Put plainly: cell-based or functional assay.
For assay [2], the target named is T1, Tie2 receptor on HUVEC. Description: summary sentence of Example 3 (co-IP and HUVEC activation).

T1 sequence (Q02763 23-1124): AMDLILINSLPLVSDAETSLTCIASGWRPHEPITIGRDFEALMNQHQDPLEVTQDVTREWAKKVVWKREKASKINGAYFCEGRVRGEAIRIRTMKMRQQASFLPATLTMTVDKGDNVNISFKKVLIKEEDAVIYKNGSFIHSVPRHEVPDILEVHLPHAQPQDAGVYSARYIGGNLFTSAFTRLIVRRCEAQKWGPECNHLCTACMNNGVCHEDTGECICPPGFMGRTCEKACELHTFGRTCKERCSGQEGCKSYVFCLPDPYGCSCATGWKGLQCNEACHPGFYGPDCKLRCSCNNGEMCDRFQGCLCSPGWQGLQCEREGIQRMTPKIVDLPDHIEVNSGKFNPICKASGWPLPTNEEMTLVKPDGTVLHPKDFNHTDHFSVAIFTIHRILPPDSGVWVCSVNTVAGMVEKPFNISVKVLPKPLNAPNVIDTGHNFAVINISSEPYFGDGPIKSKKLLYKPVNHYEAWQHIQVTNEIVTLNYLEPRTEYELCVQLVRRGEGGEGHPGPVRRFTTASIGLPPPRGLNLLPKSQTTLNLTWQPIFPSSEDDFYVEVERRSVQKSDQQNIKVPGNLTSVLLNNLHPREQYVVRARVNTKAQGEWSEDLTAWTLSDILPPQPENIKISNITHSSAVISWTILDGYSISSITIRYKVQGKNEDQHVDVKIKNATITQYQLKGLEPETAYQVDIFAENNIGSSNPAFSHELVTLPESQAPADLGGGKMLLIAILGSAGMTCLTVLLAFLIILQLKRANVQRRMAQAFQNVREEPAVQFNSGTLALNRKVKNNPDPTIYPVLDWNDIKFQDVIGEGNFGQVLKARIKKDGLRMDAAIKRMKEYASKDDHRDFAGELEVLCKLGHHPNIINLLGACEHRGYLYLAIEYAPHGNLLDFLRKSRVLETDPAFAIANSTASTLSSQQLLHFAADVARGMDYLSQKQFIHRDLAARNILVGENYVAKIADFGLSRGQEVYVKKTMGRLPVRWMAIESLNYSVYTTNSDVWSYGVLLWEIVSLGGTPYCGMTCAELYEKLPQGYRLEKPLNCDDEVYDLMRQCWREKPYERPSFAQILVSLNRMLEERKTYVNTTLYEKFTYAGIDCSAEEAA

B1: ANG1-C4BP (designed binder, not shown: small tags and cut ends)
chain: KPFRDCADVYQAGFNKSGIYTIYINNMPEPKKVFCNMDVNGGGWTVIQHREDGSLDFQRGWKEYKMGFGNPSGEYWLGNEFIFAITSQRQYMLRIELMDWEGNRAYSQYDRFHIGNEKQNYRLYLKGHTGTAGKQSSLILHGADFSTKDADNDNCMCKCALMLTGGWWFDACGPSNLNGMFYTAGQNHGKLNGIKWHYFKGPSYSLRSTTMMIRPLDFGGGGSETPEGCEQVLTGKRLMQCLPNPEDVKMALEVYKLSLEIEQLELQRDSARQSTLDKEL
On to B1, for which, in the assay with Tie2 receptor on HUVEC [1], the “phosphorylation level of AKT (pAKT) in HUVEC treated for 20 minutes, EC50” value was determined as 87 ng/mL.

B2: C4BP-ANG1 (designed binder, not shown: small tags and cut ends)
chain: ETPEGCEQVLTGKRLMQCLPNPEDVKMALEVYKLSLEIEQLELQRDSARQSTLDKELGGGGSKPFRDCADVYQAGFNKSGIYTIYINNMPEPKKVFCNMDVNGGGWTVIQHREDGSLDFQRGWKEYKMGFGNPSGEYWLGNEFIFAITSQRQYMLRIELMDWEGNRAYSQYDRFHIGNEKQNYRLYLKGHTGTAGKQSSLILHGADFSTKDADNDNCMCKCALMLTGGWWFDACGPSNLNGMFYTAGQNHGKLNGIKWHYFKGPSYSLRSTTMMIRPLDF
notes: Heptamer through disulfide-bridged C4BP segment; also called C4BP-ANG1 chimeric fusion protein
Regarding B2, the binding result in the assay with Tie2 receptor on HUVEC [2] is recorded as “binds”.
